Molecular target: T1, β subunit of the plastid-encoded RNA polymerase (SaRpoB) (Sinapis alba (endogenous in cotyledon …, UniProt P46818 1-1078))
T1 construct: RNA polymerase β subunit, product of the plastid gene rpoB, Sinapis alba
T1 sequence (looked up): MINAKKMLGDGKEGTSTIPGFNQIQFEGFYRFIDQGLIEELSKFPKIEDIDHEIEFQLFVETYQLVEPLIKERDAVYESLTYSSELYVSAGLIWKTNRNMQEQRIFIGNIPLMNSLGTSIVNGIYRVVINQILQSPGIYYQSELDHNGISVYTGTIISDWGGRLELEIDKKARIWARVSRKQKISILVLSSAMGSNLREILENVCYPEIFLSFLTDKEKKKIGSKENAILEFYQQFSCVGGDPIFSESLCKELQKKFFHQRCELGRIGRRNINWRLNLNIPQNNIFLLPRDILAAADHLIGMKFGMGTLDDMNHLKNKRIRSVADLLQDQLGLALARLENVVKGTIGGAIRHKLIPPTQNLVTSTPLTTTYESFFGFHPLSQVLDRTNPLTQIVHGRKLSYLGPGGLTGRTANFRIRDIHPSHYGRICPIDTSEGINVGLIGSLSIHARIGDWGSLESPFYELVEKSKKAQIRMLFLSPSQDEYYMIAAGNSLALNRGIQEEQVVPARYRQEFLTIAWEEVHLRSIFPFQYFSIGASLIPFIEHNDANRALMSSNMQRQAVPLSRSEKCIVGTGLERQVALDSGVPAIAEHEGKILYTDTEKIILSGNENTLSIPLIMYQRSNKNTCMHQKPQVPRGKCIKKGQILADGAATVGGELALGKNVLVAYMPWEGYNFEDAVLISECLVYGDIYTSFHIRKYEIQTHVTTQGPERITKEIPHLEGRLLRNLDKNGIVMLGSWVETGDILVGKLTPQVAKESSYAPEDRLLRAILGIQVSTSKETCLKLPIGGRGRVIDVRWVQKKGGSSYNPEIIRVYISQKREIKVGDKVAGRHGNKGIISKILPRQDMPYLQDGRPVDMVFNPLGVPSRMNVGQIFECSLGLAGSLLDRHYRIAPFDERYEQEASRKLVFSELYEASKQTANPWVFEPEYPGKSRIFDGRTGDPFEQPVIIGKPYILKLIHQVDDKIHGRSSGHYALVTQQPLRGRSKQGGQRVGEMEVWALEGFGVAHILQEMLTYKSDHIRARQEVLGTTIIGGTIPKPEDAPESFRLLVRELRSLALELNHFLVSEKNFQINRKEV
Assay: co-purification of the native complex with mass spectrometry; chloroplast lysate of S. alba cotyledons; heparin resin (elution 1.2 M (NH4)2SO4), 35-15% glycerol gradient, Q-Sepharose (0-1 M NaCl), 100-kDa cutoff concentration; three independent preparations; label-free MS, iBAQ values
Details: partners not purified

B1: α subunit of the plastid-encoded RNA polymerase (SaRpoA) (natural protein, UniProt Q9XQN8 1-327, looked up)
chain: MVREKVKVSTRTLQWKCVESRRDSKRLYYGRFILSPLMKGQADTIGIAMARALLGEIEGTCITRAKSENIPHDYSNIVGIQESVHEILMNLNEIVLKSNLYGTRNPFICVQGPGYITARDIILPPSVEIVDNTQHIATLTEPINLCIGLKIERNRGYSLKMSNNFEDRSYPIDAVFMPVQNANHSIHSYGNGNEKQEILFIEIWTNGSLTPKEALYEASRNLINLFIPFLHVEEETFYLENNQHQVTLPVFPFHNKLVNLRQKKKELAFQYIFIDQLELPPRIYNCLKKSNIHTLLDLLNNSQEDLIKMEHFHIEDVKKLLDILEKK
notes: RNA polymerase α subunit, product of the plastid gene rpoA, Sinapis alba
stoichiometry N: ~2

Reference: paper PMC9456514, “Three-Dimensional Envelope and Subunit Interactions of the Plastid-Encoded RNA Polymerase from Sinapis alba” (International Journal of Molecular Sciences, 2022)
